Reference: patent US20100216170A1

Tests used:
[1] = molecular target: mutant membrane-bound TNFα on stably transfected CHO cells (B-220 cells) (UniProt P01375); test: FACS, beads with CHO-TNFα (B220), sample 2
[2] = molecular target: mutant membrane-bound TNFα on stably transfected CHO cells (B-220 cells) (UniProt P01375); test: FACS, gate P4 (CHO cells with anti-CD19 beads), FIG. 4
[3] = molecular target: mutant membrane-bound TNFα on stably transfected CHO cells (B-220 cells) (UniProt P01375); test: FACS, gate P4 (CHO cells with anti-CD19 beads), middle panel of FIG. 3

Sequence of UniProt P01375 (P01375 whole entry, change not shown): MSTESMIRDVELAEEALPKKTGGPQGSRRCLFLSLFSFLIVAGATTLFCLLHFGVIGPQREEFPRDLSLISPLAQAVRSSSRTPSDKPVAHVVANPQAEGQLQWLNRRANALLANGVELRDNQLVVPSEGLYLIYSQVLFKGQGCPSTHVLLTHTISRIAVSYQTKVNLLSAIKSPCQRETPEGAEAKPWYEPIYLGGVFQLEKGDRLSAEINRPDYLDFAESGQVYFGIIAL

Work on “APC-labeled unrelated antibody (anti-CD19) coated on beads” yielded a % bound beads [1] of 0.9%, a #Events [2] of 2 events and a % Parent [2] of 0%. For the same substance, the % Total [2] was 0%, the #Events [3] was 6 events and the % Parent [3] was 0.1%. For the same substance, the % Total [3] was 0.1%.
